In test [1] the target is Coagulation factor XIa.
Test [2] has as its target Coagulation factor XIa. The test is described as follows: enzyme inhibition kinetics; XIa (0.5 nM) preincubated with peptide 30 min at 37 °C, chromogenic substrate S2366; 50 mM Tris pH 7.4, 140 mM NaCl, 5 mM CaCl2, 0.1% BSA; double reciprocal plots, mixed inhibition.

The substance “Schistosoma Kunitz peptide Shp4 (Schistosoma haematobium peptide-repeat 4) (domain or fragment)” returned an inhibition of XIa activity on a chromogenic substrate, concentration dependent in the test with Coagulation factor XIa [1] of 7.1 nM. In the test with Coagulation factor XIa [2], the Ki worked out at 3.35 nM and the Ki' (towards the enzyme-substrate complex) stood at 1.64 nM.

What is called Ki is a dissociation constant, usually derived from enzyme kinetics or from competition with a known ligand.
